Patent US20150258192A1, “COMPOSITIONS AND METHODS FOR PREVENTING OR TREATING CHRONIC LUNG ALLOGRAFT DYSFUNCTION (CLAD) AND IDIOPATHIC PULMONARY FIBROSIS (IPF)” (priority 2014, published 2015)
No end group written: not given here.

Experiments:
Lck(h) = biological target: T1, Lck(h) (Homo sapiens, UniProt P06239); assay: Kinase Profiling Assay; type: biochemical; conditions: peptide 100 μM
T1 construct: purchased Millipore
Summary of the method: (§1)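 Radiometric filter-binding format: cationic substrate takes up labeled phosphate from ATP unless the inhibitor peptide blocks the kinase. Substrate bound to an anionic filter, scintillation-counted, normalized to 100% activity control. Duplicates; part of a 266-kinase selectivity panel for MK2 peptides.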

PDGFRα(D842V)(h) = PDGFRα(D842V)(h) (Homo sapiens, UniProt P16234, D842V); assay: Kinase Profiling Assay; type: biochemical; conditions: peptide 100 μM
Summary of the method: as §1

EGFR(T790M)(h) = EGFR(T790M)(h) (Homo sapiens, UniProt P00533, T790M); assay: Kinase Profiling Assay; type: biochemical; conditions: peptide 100 μM
Summary of the method: as §1

HIPK3(h) = biological target: T2, HIPK3(h) (Homo sapiens, UniProt Q9H422); assay: Kinase Profiling Assay; type: biochemical; conditions: peptide 100 μM
T2 construct: purchased Millipore
Summary of the method: as §1

PAR-1Bα(h) = PAR-1Bα(h) (Homo sapiens, UniProt Q7KZI7); assay: Kinase Profiling Assay; type: biochemical; conditions: peptide 100 μM
Summary of the method: as §1

Abl(M351T)(h) = Abl(M351T)(h) (Homo sapiens, UniProt P00519, M351T); assay: Kinase Profiling Assay; type: biochemical; conditions: peptide 100 μM
Summary of the method: as §1

Aurora-A(h) = biological target: T3, Aurora-A(h) (Homo sapiens, UniProt O14965); assay: Kinase Profiling Assay; type: biochemical; conditions: peptide 100 μM
T3 sequence (O14965 1-403): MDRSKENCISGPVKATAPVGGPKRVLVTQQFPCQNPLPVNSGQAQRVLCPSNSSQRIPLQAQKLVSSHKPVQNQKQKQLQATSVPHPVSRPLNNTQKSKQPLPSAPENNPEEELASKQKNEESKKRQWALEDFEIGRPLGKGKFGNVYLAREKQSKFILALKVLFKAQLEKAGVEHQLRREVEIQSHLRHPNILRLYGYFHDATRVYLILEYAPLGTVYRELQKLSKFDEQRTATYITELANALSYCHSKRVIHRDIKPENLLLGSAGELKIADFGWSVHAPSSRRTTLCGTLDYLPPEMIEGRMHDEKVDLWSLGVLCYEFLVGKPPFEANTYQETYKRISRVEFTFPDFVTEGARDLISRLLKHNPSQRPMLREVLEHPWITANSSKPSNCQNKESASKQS
Summary of the method: as §1

PKA(h) = PKA(h) (Homo sapiens, UniProt P17612); assay: Kinase Profiling Assay; type: biochemical; conditions: peptide 100 μM
Summary of the method: as §1

Abl(H396P)(h) = Abl(H396P)(h) (Homo sapiens, UniProt P00519, H396P); assay: Kinase Profiling Assay; type: biochemical; conditions: peptide 100 μM
Summary of the method: as §1

PAK3(h) = PAK3(h) (Homo sapiens, UniProt O75914); assay: Kinase Profiling Assay; type: biochemical; conditions: peptide 100 μM
Summary of the method: as §1

CK2α2(h) = CK2α2(h) (Homo sapiens, UniProt P19784); assay: Kinase Profiling Assay; type: biochemical; conditions: peptide 100 μM
Summary of the method: as §1

GRK5(h) = biological target: T4, GRK5(h) (Homo sapiens, UniProt P34947); assay: Kinase Profiling Assay; type: biochemical; conditions: peptide 100 μM
T4 construct: purchased Millipore
Summary of the method: as §1

Tie2(R849W)(h) = Tie2(R849W)(h) (Homo sapiens, UniProt Q02763, R849W); assay: Kinase Profiling Assay; type: biochemical; conditions: peptide 100 μM
Summary of the method: as §1

CK1γ3(h) = CK1γ3(h) (Homo sapiens, UniProt Q9Y6M4); assay: Kinase Profiling Assay; type: biochemical; conditions: peptide 100 μM
Summary of the method: as §1

IGF-1R(h) = biological target: T5, IGF-1R(h) (Homo sapiens, UniProt P08069); assay: Kinase Profiling Assay; type: biochemical; conditions: peptide 100 μM
T5 construct: purchased Millipore
Summary of the method: as §1

[1] = system: bleomycin-induced lung fibrosis in C57BL/6 mice; assay: Bleomycin mouse model of pulmonary fibrosis (IPF prevention model); type: in vivo; conditions: for collagen levels in the lung (Masson's blue trichrome), dose-response: 25, 50 or 75 μg/kg daily IP, day 7-21; for collagen accumulation in the lungs (Masson's Trichrome staining) / development of fibrotic loci formation (H&E staining): daily day 7-21 post bleomycin; for total collagen deposition (from hydroxyproline) vs bleomycin control: post-inflammatory/pre-fibrotic stage
Experimental: A mouse model of pulmonary fibrosis was generated by administering 0.025 U of bleomycin/PBS intratracheally to C57BL/6 mice. […] At 21 day post bleomycin delivery (for prevention model) or 28 post bleomycin delivery (for treatment model), groups of mice were sacrificed with a sodium pentobarbital injection (120 mg/kg) and the chest cavity was opened. The right mainstem bronchus was ligated and the right lung was removed. The trachea was cannulated and the left lung was perfused with 4% formaldehyde at 21 cm H2O pressure. The tissue blocks then were embedded in paraffin, and […] sections were prepared for staining. Sections from each animal were stained with hematoxylin and eosin (H&E) to visualize cells or with Masson's Trichrome staining to highlight collagen deposition. […] Stained sections were mounted onto a labeled glass slide with organic mounting medium.
Briefly, fibrotic loci in the lungs of the mice were induced by delivering intratracheally about 0.025 U of bleomycin (dissolved in PBS) to C57BL/6 mice. […] Briefly, mice were sacrificed with a sodium pentobarbital injection (120 mg/kg) and the chest cavity was opened. The right mainstem bronchus was ligated and the right lung was removed. The trachea was cannulated and the left lung was perfused with 4% formaldehyde at 21 cm H2O pressure. The tissue blocks then were embedded in paraffin, and […] sections were prepared, and stained with hematoxylin and eosin (H&E; for pathological examination) or Masson's Trichrome (for collagen staining)
Next, total collagen levels in the lungs of the bleomycin-injured mice (FIG. 12) were analyzed quantitatively by computing a constant conversion factor (7.5) for collagen from hydroxyproline concentrations (Neuman R. and Logan M, J Biol Chem., 186(2):549-56, 1950, incorporated by reference).
Next, the effect of increasing doses of MK2 peptide inhibitors on collagen deposition was examined in vivo using the bleomycin mouse model of idiopathic pulmonary fibrosis (prevention model). Briefly, C57-BL/6 mice were subjected to bleomycin injury at day 0.

[2] = system: normal human fetal lung fibroblasts (IMR-90); assay: TGF-β-induced myofibroblast activation (α-SMA immunoblot); type: cell-based; conditions: pre-treated 1 h, TGF-β1 (2 ng/ml) 48 h
Description: Cell lysates were immunoblotted against antibodies for α-SMA (a marker for myofibroblast activation) and GAPDH (loading control).

[3] = system: human fetal lung fibroblasts (IMR-90); assay: TGF-β-mediated fibronectin expression; type: cell-based; conditions: pre-treated 1 h, TGF-β1 (2 ng/ml) 72 h, conditioned media
Experimental: Fibronection was measured as secreted fragments in the conditioned media. Equal amounts (14 μg) of total proteins from the conditioned media were loaded in each lane.

mesothelial cells = conditions: cited from earlier work

Sequence of PAR-1Bα(h) (Q7KZI7 1-725 isoform Q7KZI7-4): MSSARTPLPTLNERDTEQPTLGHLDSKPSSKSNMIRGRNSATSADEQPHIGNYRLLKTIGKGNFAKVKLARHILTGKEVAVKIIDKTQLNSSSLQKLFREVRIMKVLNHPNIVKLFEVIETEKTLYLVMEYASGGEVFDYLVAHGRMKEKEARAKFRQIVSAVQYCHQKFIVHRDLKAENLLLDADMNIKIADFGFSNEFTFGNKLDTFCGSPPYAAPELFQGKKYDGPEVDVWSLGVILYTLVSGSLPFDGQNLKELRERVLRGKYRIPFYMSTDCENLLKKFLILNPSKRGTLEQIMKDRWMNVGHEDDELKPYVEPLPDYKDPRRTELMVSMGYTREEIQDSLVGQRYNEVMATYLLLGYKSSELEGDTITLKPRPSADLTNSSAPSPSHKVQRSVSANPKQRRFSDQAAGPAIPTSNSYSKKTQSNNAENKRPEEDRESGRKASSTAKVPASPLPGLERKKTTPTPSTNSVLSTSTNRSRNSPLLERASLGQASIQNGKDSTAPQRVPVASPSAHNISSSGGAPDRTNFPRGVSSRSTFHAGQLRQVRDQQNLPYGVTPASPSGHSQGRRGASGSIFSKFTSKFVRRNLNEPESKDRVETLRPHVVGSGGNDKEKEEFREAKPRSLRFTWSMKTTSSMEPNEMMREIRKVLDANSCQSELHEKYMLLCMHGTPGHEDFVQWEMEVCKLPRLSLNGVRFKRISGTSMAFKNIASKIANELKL
Sequence of CK1γ3(h) (Q9Y6M4 whole entry): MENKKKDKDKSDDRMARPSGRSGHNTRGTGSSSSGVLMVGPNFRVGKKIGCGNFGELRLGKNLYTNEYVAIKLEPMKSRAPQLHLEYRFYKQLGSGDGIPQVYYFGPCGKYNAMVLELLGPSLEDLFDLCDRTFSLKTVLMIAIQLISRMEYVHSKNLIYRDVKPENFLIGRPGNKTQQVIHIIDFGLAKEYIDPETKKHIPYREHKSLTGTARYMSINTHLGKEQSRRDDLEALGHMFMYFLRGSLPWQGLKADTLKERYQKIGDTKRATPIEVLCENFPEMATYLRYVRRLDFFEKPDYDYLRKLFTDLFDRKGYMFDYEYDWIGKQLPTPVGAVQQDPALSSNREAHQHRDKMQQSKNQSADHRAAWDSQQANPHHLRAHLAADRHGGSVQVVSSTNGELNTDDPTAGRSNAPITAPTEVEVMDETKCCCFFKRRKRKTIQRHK
Sequence of PDGFRα(D842V)(h) (P16234 24-1089 D842V): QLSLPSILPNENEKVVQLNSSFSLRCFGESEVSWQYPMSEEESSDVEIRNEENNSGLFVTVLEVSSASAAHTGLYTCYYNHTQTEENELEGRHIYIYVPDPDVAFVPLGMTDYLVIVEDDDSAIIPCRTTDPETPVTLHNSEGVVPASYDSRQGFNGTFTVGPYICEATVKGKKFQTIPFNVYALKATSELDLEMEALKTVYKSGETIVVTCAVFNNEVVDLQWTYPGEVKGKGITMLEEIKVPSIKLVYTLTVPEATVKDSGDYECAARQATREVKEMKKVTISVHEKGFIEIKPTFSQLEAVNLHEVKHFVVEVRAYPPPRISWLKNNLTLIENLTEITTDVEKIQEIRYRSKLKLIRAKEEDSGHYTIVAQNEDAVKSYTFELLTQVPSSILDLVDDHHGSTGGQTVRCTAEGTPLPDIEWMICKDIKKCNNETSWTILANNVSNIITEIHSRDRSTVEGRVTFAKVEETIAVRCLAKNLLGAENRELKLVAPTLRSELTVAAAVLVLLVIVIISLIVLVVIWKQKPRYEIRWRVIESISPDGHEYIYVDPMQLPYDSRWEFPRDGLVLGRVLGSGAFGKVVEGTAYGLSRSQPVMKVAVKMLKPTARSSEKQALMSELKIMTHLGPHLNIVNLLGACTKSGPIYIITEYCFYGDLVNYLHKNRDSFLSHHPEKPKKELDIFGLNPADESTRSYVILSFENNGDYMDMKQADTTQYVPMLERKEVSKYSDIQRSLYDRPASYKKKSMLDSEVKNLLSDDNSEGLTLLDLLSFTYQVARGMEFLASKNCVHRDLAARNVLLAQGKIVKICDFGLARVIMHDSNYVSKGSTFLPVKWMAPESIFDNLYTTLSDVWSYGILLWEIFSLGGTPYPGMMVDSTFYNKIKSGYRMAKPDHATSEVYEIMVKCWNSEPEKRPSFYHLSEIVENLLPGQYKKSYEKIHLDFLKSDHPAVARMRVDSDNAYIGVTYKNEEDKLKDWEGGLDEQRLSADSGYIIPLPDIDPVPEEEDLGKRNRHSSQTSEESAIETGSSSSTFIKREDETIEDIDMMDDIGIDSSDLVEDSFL
T2 sequence (Q9H422 whole entry): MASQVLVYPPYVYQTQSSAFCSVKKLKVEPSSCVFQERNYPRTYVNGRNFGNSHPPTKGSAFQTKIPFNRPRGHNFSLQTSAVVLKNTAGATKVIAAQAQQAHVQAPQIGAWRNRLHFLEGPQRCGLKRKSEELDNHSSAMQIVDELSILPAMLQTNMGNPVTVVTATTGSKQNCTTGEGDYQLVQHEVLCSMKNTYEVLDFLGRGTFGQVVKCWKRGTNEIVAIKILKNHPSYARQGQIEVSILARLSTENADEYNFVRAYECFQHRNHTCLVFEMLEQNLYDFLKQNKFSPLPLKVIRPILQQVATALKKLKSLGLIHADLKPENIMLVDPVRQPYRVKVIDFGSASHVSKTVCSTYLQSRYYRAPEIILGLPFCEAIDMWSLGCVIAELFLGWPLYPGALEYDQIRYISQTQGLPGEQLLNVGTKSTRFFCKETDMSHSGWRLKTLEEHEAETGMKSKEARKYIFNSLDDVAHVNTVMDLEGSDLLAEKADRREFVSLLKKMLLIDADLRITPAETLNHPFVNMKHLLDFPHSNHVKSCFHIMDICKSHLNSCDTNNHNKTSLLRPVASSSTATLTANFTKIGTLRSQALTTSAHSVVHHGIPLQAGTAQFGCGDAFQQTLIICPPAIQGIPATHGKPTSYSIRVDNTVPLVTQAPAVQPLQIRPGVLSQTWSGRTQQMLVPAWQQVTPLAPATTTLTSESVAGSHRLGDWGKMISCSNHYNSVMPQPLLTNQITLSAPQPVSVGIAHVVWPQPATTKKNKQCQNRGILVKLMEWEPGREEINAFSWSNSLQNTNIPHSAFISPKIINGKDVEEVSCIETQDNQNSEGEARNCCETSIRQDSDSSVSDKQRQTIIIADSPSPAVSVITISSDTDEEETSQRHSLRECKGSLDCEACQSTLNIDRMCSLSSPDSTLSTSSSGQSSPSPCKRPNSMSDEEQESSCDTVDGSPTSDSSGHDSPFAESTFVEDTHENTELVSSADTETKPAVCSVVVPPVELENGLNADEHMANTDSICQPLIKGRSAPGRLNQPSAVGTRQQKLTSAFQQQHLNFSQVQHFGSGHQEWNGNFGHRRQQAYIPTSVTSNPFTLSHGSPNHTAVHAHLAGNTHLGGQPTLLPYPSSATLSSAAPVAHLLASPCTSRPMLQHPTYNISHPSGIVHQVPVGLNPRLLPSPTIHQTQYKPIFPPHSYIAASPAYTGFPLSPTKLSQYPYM
T1 sequence (P06239 whole entry): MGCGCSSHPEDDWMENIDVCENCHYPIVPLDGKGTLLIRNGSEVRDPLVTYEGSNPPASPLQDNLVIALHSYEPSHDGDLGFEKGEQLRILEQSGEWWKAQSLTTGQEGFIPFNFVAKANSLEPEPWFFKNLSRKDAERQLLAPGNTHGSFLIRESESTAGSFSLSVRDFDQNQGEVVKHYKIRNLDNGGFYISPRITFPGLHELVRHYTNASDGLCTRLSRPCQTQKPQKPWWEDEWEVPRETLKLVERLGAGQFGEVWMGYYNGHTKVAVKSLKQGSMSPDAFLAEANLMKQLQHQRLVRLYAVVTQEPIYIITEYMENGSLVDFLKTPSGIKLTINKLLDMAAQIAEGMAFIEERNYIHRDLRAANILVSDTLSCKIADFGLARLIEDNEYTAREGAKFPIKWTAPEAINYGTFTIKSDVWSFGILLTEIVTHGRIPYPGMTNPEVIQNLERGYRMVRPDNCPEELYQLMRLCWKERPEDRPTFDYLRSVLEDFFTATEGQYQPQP
Sequence of PAK3(h) (O75914 whole entry): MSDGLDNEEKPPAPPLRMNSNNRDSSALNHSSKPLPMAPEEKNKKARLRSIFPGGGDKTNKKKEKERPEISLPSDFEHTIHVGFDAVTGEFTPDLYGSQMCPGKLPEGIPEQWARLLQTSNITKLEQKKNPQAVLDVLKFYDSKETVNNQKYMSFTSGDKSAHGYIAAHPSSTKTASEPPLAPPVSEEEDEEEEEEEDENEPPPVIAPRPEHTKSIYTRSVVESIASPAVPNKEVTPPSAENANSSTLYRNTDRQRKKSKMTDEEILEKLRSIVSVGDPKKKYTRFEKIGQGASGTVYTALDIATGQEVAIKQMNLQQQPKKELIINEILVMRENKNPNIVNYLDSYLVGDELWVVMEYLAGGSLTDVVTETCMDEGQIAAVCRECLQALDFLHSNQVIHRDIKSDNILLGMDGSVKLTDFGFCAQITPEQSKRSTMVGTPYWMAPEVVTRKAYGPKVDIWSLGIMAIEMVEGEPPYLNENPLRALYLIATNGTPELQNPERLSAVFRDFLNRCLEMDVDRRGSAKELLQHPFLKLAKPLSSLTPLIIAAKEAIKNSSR
Sequence of CK2α2(h) (P19784 whole entry): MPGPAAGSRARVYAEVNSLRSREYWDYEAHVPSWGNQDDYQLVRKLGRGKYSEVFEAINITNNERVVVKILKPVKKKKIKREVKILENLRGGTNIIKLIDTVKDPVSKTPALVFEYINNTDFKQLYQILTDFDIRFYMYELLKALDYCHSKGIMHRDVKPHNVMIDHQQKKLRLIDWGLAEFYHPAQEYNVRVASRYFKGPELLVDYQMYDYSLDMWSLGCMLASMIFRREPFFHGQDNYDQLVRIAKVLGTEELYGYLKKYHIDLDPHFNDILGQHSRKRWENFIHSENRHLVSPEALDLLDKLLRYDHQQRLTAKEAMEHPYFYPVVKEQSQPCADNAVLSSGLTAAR

Row | Sequence | % activity (Lck(h)) | % activity (PDGFRα(D842V)(h)) | % activity (EGFR(T790M)(h)) | % activity (HIPK3(h)) | % activity (PAR-1Bα(h)) | % activity (Abl(M351T)(h)) | % activity (Aurora-A(h)) | % activity (PKA(h)) | % activity (Abl(H396P)(h)) | % activity (PAK3(h)) | % activity (CK2α2(h)) | % activity (GRK5(h)) | % activity (Tie2(R849W)(h)) | % activity (CK1γ3(h)) | % activity (IGF-1R(h)) | collagen levels in the lung (Masson's blue trichrome), dose-response [1] | protein level of α-smooth muscle actin (α-SMA) [2] | protein level of fibronectin [3] | further results
1 | HRRIKAWLKKIKALARQLGVAA (Mammal) [MMI-0500] | 359% | 170% | 70% | 85% | 97% | 61% | 110% | 118% | 51% | – | – | – | – | – | – | – | – | – | –
2 | YARAAARQARAKALNRQLGVA (Mammal) [MMI-0200] | – | – | – | – | 110% | – | – | 110% | – | 50% | 88% | 135% | 89% | 96% | 49% | did not reduce, but rather increased | no changes | no changes | –
3 | YARAAARQARAKALARQLGVAA [MMI-0100] | – | – | – | – | – | – | – | – | – | – | – | – | – | – | – | a decrease in collagen levels | decreases | decreases | collagen accumulation in the lungs (Masson's Trichrome staining) ([1]; intraperitoneally): reduced collagen accumulation; development of fibrotic loci formation (H&E staining) ([1]; intraperitoneally): significantly reduced; total collagen deposition (from hydroxyproline) vs bleomycin control ([1]; nebulized): significantly decreased; total collagen deposition (from hydroxyproline) vs bleomycin control ([1]; systemic (IP)): significantly decreased; collagen accumulation in the lungs (Masson's Trichrome staining) ([1]; via nebulization): reduced collagen accumulation; development of fibrotic loci formation (H&E staining) ([1]; via nebulization): significantly reduced; TFG-β-induced cytokine release (mesothelial cells): inhibits
4 | FAKLAARLYRKALARQLGVAA [MMI-0300] | -2% | – | 100% | 93% | – | 90% | 92% | – | 101% | 140% | – | – | – | 125% | – | – | – | – | –
5 | KAFAKLAARLYRKALARQLGVAA [MMI-0400] | – | 118% | – | – | – | – | – | – | – | – | 96% | 131% | 108% | – | 90% | – | – | – | –
